Source: IntAct's records for PubMed 27071417

B1: Caspase recruitment domain-containing protein 14 (Homo sapiens), Q9BXL6-1 (parent)
chain: MGELCRRDSALTALDEETLWEMMESHRHRIVRCICPSRLTPYLRQAKVLCQLDEEEVLHSPRLTNSAMRAGHLLDLLKTRGKNGAIAFLESLKFHNPDVYTLVTGLQPDVDFSNFSGLMETSKLTECLAGAIGSLQEELNQEKGQKEVLLRRCQQLQEHLGLAETRAEGLHQLEADHSRMKREVSAHFHEVLRLKDEMLSLSLHYSNALQEKELAASRCRSLQEELYLLKQELQRANMVSSCELELQEQSLRTASDQESGDEELNRLKEENEKLRSLTFSLAEKDILEQSLDEARGSRQELVERIHSLRERAVAAERQREQYWEEKEQTLLQFQKSKMACQLYREKVNALQAQVCELQKERDQAYSARDSAQREISQSLVEKDSLRRQVFELTDQVCELRTQLRQLQAEPPGVLKQEARTREPCPREKQRLVRMHAICPRDDSDCSLVSSTESQLLSDLSATSSRELVDSFRSSSPAPPSQQSLYKRVAEDFGEEPWSFSSCLEIPEGDPGALPGAKAGDPHLDYELLDTADLPQLESSLQPVSPGRLDVSESGVLMRRRPARRILSQVTMLAFQGDALLEQISVIGGNLTGIFIHRVTPGSAADQMALRPGTQIVMVDYEASEPLFKAVLEDTTLEEAVGLLRRVDGFCCLSVKVNTDGYKRLLQDLEAKVATSGDSFYIRVNLAMEGRAKGELQVHCNEVLHVTDTMFQGCGCWHAHRVNSYTMKDTAAHGTIPNYSRAQQQLIALIQDMTQQCTVTRKPSSGGPQKLVRIVSMDKAKASPLRLSFDRGQLDPSRMEGSSTCFWAESCLTLVPYTLVRPHRPARPRPVLLVPRAVGKILSEKLCLLQGFKKCLAEYLSQEEYEAWSQRGDIIQEGEVSGGRCWVTRHAVESLMEKNTHALLDVQLDSVCTLHRMDIFPIVIHVSVNEKMAKKLKKGLQRLGTSEEQLLEAARQEEGDLDRAPCLYSSLAPDGWSDLDGLLSCVRQAIADEQKKVVWTEQSPR
partner: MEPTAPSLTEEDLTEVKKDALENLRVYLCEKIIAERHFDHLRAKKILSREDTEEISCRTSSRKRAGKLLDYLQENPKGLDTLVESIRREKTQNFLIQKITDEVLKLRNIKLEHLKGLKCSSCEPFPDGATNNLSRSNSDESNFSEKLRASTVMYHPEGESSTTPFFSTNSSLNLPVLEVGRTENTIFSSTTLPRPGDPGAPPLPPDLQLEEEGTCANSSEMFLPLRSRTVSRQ
B2: Caspase recruitment domain-containing protein 14 (Homo sapiens), Q9BXL6-2 (parent)
chain: MGELCRRDSALTALDEETLWEMMESHRHRIVRCICPSRLTPYLRQAKVLCQLDEEEVLHSPRLTNSAMRAGHLLDLLKTRGKNGAIAFLESLKFHNPDVYTLVTGLQPDVDFSNFSGLMETSKLTECLAGAIGSLQEELNQEKGQKEVLLRRCQQLQEHLGLAETRAEGLHQLEADHSRMKREVSAHFHEVLRLKDEMLSLSLHYSNALQEKELAASRCRSLQEELYLLKQELQRANMVSSCELELQEQSLRTASDQESGDEELNRLKEENEKLRSLTFSLAEKDILEQSLDEARGSRQELVERIHSLRERAVAAERQREQYWEEKEQTLLQFQKSKMACQLYREKVNALQAQVCELQKERDQAYSARDSAQREISQSLVEKDSLRRQVFELTDQVCELRTQLRQLQAEPPGVLKQEARTREPCPREKQRLVRMHAICPRDDSDCSLVSSTESQLLSDLSATSSRELVDSFRSSSPAPPSQQSLYKRVAEDFGEEPWSFSSCLEIPEGDPGALPGAKAGDPHLDYELLDTADLPQLESSLQPVSPGRLDVSESGVLMRRRPARRILSQVTMLAFQGDALLEQISVIGGNLTGIFIHRVTPGSAADQMALRPGTQIVMVDYEASEPLFKAVLEDTTLEEAVGLLRRVDGFCCLSVKVNTDGYKRLLQDLEAKVATSGDSFYIRVNLAMEGRAKGELQVHCNEVLHVTDTMFQGCGCWHAHRVNSYTMKDTAAHGTIPNYSR
partner: B1 partner

How the values were obtained:
Conditions in all cases: with bcl10_human BCL10, O95999
[1] = variants of: B1
[2] = variants of: B1; remark: listed apart in the source
[3] = variants of: B2; remark: listed apart in the source
[4] = variants of: B2; remark: listed apart in the source

E138A
effect of a mutation on the interaction [1]: with no effect
effect of a mutation on the interaction [2]: increasing interaction strength

G117S
effect of a mutation on the interaction [3]: increasing interaction strength
effect of a mutation on the interaction [4]: with no effect

E138A
effect of a mutation on the interaction [3]: increasing interaction strength
effect of a mutation on the interaction [4]: with no effect
